Data from patent US20130266566A1 (AbbVie / Abbott, published 2013).
Changes are numbered by the printed parent chain.

T1: mouse PAI-1 (mouse, UniProt P22777 24-401)
T1 sequence: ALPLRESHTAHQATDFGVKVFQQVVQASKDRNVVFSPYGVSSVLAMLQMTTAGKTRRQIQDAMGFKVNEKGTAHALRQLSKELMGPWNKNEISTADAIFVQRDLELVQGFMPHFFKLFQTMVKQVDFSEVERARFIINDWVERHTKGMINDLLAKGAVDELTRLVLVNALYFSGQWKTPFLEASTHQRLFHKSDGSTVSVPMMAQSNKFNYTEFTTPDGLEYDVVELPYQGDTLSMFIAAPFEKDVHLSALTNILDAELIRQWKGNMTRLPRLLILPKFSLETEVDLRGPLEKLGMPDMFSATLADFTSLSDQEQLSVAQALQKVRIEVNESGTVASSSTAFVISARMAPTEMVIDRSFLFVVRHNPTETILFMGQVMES

T2: rat PAI-1 (rat, UniProt P20961 24-402)
T2 sequence: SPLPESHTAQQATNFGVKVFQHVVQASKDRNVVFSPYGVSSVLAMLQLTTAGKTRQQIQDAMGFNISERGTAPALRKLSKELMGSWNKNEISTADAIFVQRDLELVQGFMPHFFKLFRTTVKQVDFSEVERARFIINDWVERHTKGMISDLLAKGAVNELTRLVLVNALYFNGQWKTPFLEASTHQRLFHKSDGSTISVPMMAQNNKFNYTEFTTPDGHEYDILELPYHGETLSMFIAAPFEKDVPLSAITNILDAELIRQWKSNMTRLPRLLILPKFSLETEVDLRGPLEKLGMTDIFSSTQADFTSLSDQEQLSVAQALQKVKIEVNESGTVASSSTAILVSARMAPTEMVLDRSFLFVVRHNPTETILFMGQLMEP

B1: Antibody 01 scFv (scFv)
chain: QVQLVQSGAEVKKPGSSVKVSCKASGGTFSSYAISWVRQAPGQGLEWMGGIIPIFGTANYAQKFQGRVTITADESTSTAYMELSSLRSEDTAVYYCAREKRQWLEGHFDYWGRGTLVTVSSDIQMTQSPSTLSASVGDRVTITCRASEGIYRSLAWYQQKPGKAPKLLIYKASSLASGVPSRFSGSGSGTEFTLTISSLQPDDFATYYCQQYSNYPLTFGGGTKVEIK
B2: Antibody 14 scFv (scFv)
chain: QVQLQQSGAEVKKPGSSVKVSCKASGGTFSSYAISWVRQAPGQGLEWMGGIIPTFGTANYAQKFQGRVTITADESTSTAYMELSGLRSEDTAVYYCAREKRQWLEGHFDYWGRGTLVTVSSDIQMTQSPSFLSASIGDRVTITCRASEGIYHNLAWYQQKPGKAPKLLIYRASSLASGAPSRFSGSGSGTDFTFTISSLQPDDFATYYCQQYSNYPLTFGGGTKLEIK
B3: Antibody 27 scFv (scFv)
chain: B2 chain with T28A, L116P, F194L
B4: Antibody 09 scFv (scFv)
chain: B2 chain with T54A, G56D, L116P, R145Q, F194L
B5: Antibody 02 scFv (scFv)
chain: B1 chain with I54T, R152H, N214D
B6: Antibody 07 scFv (scFv)
chain: B2 chain with M48V, L116P, T126A, N153E, F194L
B7: Antibody 05 scFv (scFv)
chain: B2 chain with G56S, Q65R, L116P, N153Q, F194L
B8: Antibody 03 scFv (scFv)
chain: B2 chain with L116P, H152R, N153S, R171K, F194L, S198G
B9: Antibody 26 scFv (scFv)
chain: B2 chain with S16T, T54I, G85S, L116P, N153T, F194L
B10: Antibody 25 scFv (scFv)
chain: B2 chain with K100R, R113Q, L116P, G149S, N153E, R171K, D191A, F194L
B11: Antibody 10 scFv (scFv)
chain: B2 chain with G85S, L116P, T141A, N153S, F194L, K224R
B12: Antibody 06 scFv (scFv)
chain: B2 chain with L116P, N153E, F194L, G221R
B13: Antibody 04 scFv (scFv)
chain: QVRLQQSGAEVKKPGSSVKVSCKASGGTFSSYAISWVRQAPGQGLEWMGGIIPTFGTANYAQKFRGRVTITANESTSTAYMELSGLRSEDTAVYYCAREKRQWLEGRFDYWGRGTLVTVSSDIQMTQSPSFLSASIGDRITITCRASEGIYHSLAWYQQKPGKAPKLLIHRATSLASGTPSRFGGSGSGTDFALTISSLQPDDFATYYCQQYSNYPLTFGGGTKLEIK

Molecular target: T1, mouse PAI-1
Experiment: cell-based or functional assay

| Binder | HT-1080 Exo PAI-1 (IC50 in nM) mouse [nM] |
| --- | --- |
| B1 | 34.5 |
| B2 | 22 |
| B3 | 16.4 |
| B4 | 21 |

Molecular target: T3, active human PAI-1, recombinant, wild-type, non-glycosylated (E. coli) (human, UniProt P05121 24-402)
Experiment: cell-based or functional assay

| Binder | HT-1080 Exo PAI-1 (IC50 in nM) human [nM] |
| --- | --- |
| B1 | 23.9 |
| B2 | 28 |
| B3 | 18.8 |
| B4 | 23 |

Molecular target: T2, rat PAI-1
Experiment: cell-based or functional assay

| Binder | HT-1080 Exo PAI-1 (IC50 in nM) rat [nM] |
| --- | --- |
| B2 | 52 |
| B3 | 33.8 |
| B4 | 52.7 |

Molecular target: T1, mouse PAI-1
Experiment: cell-based or functional assay
Remark: another data set of the same source

| Binder | Chromogenic (IC50 in nM) mouse [nM] | Chromogenic IC50 ratio mouse/human [fold] |
| --- | --- | --- |
| B1 | 28.3 | 8.2 |
| B5 | 553 | 929 |
| B6 | 143 | 0.8 |
| B7 | 718 | 144 |
| B8 | 54.9 | 30.5 |
| B9 | 211 | 52.9 |
| B10 | 172 | 13.1 |
| B11 | 334 | 149 |
| B12 | 48.2 | 0.6 |
| B13 | 264 | 39.9 |

Molecular target: T3, active human PAI-1, recombinant, …
Experiment: cell-based or functional assay
Remark: another data set of the same source

| Binder | Chromogenic (IC50 in nM) human [nM] |
| --- | --- |
| B1 | 3.4 |
| B5 | 0.6 |
| B6 | 187 |
| B7 | 5 |
| B8 | 1.8 |
| B9 | 4 |
| B10 | 13.1 |
| B11 | 2.2 |
| B12 | 74.6 |
| B13 | 6.6 |

Molecular target: cynomolgus PAI-1 (cynomolgus, UniProt P05121 24-402 (human entry), limits assumed)
Experiment: cell-based or functional assay

| Binder | Chromogenic (IC50 in nM) cyno [nM] | Chromogenic IC50 ratio cyno/human [fold] |
| --- | --- | --- |
| B1 | 1.2 | 0.4 |
| B5 | 1.1 | 1.8 |
| B2 | 0.8 | – |
| B6 | 117 | 0.6 |
| B7 | 0.5 | 0.1 |
| B3 | 2.2 | – |
| B8 | 0.1 | 0.1 |
| B4 | 0.7 | – |
| B9 | 1.2 | 0.3 |
| B10 | 4.6 | 0.4 |
| B11 | 0.5 | 0.2 |
| B12 | 31.6 | 0.4 |
| B13 | 2.1 | 0.3 |

Molecular target: T2, rat PAI-1
Experiment: cell-based or functional assay
Remark: another data set of the same source

| Binder | Chromogenic (IC50 in nM) rat [nM] | Chromogenic IC50 ratio rat/human [fold] |
| --- | --- | --- |
| B1 | 208 | 60.5 |
| B5 | 530 | 891 |
| B2 | 23.1 | – |
| B6 | 91 | 0.5 |
| B7 | 860 | 172 |
| B3 | 49.8 | – |
| B8 | 297 | 165 |
| B4 | 29.7 | – |
| B9 | 245 | 61.4 |
| B10 | 322 | 24.6 |
| B11 | 296 | 132 |
| B12 | 37.1 | 0.5 |
| B13 | 340 | 51.4 |
